What was measured:
[1] = target: human recombinant adrenomedullin receptor (CRLR+RAMP3) (human)
[2] = target: human recombinant adrenomedullin receptor (CRLR+RAMP3) (human); remark: listed apart in the source

human ADM 22-52 (peptide)
IC50 (read off the curve); cAMP (HTRF) induced by 5.63 nM hADM, % inhibition [1]: 300 nM
IC50 (read off the curve); cAMP (HTRF) induced by 0.67 nM mADM, % inhibition [2]: 3000 nM

From patent US20230104578A1, “ANTI-ADRENOMEDULLIN (ADM) ANTIBODY OR ANTI-ADM ANTIBODY FRAGMENT OR ANTI-ADM NON-IG SCAFFOLD FOR USE IN THERAPY OR PREVENTION OF SHOCK” (ADRENOMED AG, priority 2020, published 2023)
